The target in the first experiment is FN-67B89, human fibronectin EDB flanked by its surrounding type III domains (human). Put plainly: ELISA.
FN-67B89, human fibronectin EDB flanked by its surrounding type III domains (human), sequence (chain, as listed by the source): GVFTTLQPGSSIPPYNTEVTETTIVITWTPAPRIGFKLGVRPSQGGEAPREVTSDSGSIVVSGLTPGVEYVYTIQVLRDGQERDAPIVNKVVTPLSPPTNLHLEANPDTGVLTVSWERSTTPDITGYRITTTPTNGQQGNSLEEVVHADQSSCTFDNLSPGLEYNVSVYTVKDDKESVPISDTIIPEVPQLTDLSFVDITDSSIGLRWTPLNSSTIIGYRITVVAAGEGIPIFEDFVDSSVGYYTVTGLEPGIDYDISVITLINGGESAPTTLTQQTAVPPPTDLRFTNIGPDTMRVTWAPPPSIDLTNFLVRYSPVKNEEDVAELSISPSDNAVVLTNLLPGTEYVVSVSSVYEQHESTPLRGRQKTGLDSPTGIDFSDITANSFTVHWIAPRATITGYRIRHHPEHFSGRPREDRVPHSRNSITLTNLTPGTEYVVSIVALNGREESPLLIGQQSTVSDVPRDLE
On to SVCAHYNTIRVRLCRRDSDCPGACICRGNGYCG (designed binder) [Trx-MC-FN-040, Thioredoxin-A fusion of cystine-knot miniprotein MC-FN-040], for which the Kd turned out to be 29.4 nM.

Take SVCKNVSIMRIRLCRRDSDCPGACICRGNGYCG (designed binder) [Trx-MC-FN-050, Thioredoxin-A fusion of cystine-knot miniprotein MC-FN-050]: binding was characterised by a dissociation constant (Kd) of 67.8 nM.

Consider SVCKQANFVRIRLCRRDSDCPGACICRGNGYCG (designed binder) [Trx-MC-FN-060, Thioredoxin-A fusion of cystine-knot miniprotein MC-FN-060], for which the affinity, expressed as Kd, was 20.4 nM.

Molecule PMCTQRKNRIRLCRRDSDCTGACICRGNGYCG (designed binder) [Trx-MC-FN-010, Thioredoxin-A fusion of cystine-knot miniprotein MC-FN-010] registered a Kd of 10.5 nM.

WKCQPTNGYRIRCRRDSDCPGDCICRGNGYCG (designed binder) [Trx-MC-FN-030, Thioredoxin-A fusion of cystine-knot miniprotein MC-FN-030]: the Kd is 232 nM.

A further experiment deals with FN-B, recombinant human fibronectin extra domain B (EDB) as a single domain (human). Nature of the experiment: ELISA. Background: An ELISA detects its analyte on a solid surface through an enzyme-linked reagent.
FN-B, recombinant human fibronectin extra domain B (EDB) as a single domain (human), sequence (chain, as listed by the source): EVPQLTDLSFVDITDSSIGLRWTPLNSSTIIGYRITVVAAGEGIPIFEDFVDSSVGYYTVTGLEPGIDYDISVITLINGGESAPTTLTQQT
As to SVCAHYNTIRVRLCRRDSDCPGACICRGNGYCG (designed binder) [Trx-MC-FN-040, Thioredoxin-A fusion of cystine-knot miniprotein MC-FN-040], the Kd was determined as 24 nM.

Consider SVCKNVSIMRIRLCRRDSDCPGACICRGNGYCG (designed binder) [Trx-MC-FN-050, Thioredoxin-A fusion of cystine-knot miniprotein MC-FN-050], for which the Kd was found to be 40.5 nM.

Regarding SVCKQANFVRIRLCRRDSDCPGACICRGNGYCG (designed binder) [Trx-MC-FN-060, Thioredoxin-A fusion of cystine-knot miniprotein MC-FN-060], the Kd amounted to 10.3 nM.

With PMCTQRKNRIRLCRRDSDCTGACICRGNGYCG (designed binder) [Trx-MC-FN-010, Thioredoxin-A fusion of cystine-knot miniprotein MC-FN-010], the Kd worked out at 6.07 nM.

On to WKCQPTNGYRIRCRRDSDCPGDCICRGNGYCG (designed binder) [Trx-MC-FN-030, Thioredoxin-A fusion of cystine-knot miniprotein MC-FN-030], for which the Kd came out at 234 nM.

What is called Kd is the concentration at which binding is half-saturated.

The record behind these values is article PMC6962393 (2020).
